Assays:
Neutrophil elastase = Neutrophil elastase (UniProt P08246)
Chain of UniProt P08246 (P08246 30-267): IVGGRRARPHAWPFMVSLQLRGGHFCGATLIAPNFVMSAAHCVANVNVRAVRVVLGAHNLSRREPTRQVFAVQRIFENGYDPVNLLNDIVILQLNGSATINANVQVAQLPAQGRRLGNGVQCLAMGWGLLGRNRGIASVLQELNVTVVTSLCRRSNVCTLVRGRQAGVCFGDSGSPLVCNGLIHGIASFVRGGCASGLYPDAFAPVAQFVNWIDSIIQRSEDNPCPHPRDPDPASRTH

Row | Substance | cleavage of the FRET peptide Dabcyl-…-Edans by factor Xa with 15 nM ecotin, relative fluorescence units after 60 min (0-60 min followed; 350 RFU without ecotin) (Factor Xa) | IC50 of inhibition of NE activity (fluorometric NE activity assay, 25 nM NE, 0-50 nM ecotin, 37°C) (Neutrophil elastase)
1 | Ecotin from Campylobacter showae, C-terminal His6 fusion (natural protein) | 17.7 RFU | 4.78 nM
2 | Ecotin from Campylobacter rectus, C-terminal His6 fusion (natural protein) | 48 RFU | 4.49 nM
3 | Ecotin from E. coli, C-terminal His6 fusion (from UniProt P23827 21-162) (natural protein) | 21.3 RFU | 4.64 nM

From publication PMC7773321
